Patent US20240083958A1, “G PROTEIN PEPTIDOMIMETICS” (VRIJE UNIVERSITEIT BRUSSEL, priority 2020, published 2024)
Where two headings read alike, the source gives them in different places. Bridge positions count the residues as written; N and C are the ends. Square brackets hold non-standard residues; d marks the D form. Primed or numbered codes have the meaning given here. Triazole bridges read from a SMILES are 1,4-linked. Peptide text beside a SMILES is read from it. ξ: configuration not given here. Pra″ = alkyne-bearing residue joined to Azk by a CuAAC triazole staple; Azk = residue with azidated side chain, clicked to Pra; Pra′ = residue with alkynyl side chain, clicked to Azk; Lys(N3) = [N-]=[N+]=NCCCC[C@H](N)C(=O)O; 1Nal = N[C@@H](Cc1cccc2ccccc12)C(=O)O; Ile(3ξ) = CCC(C)[C@H](N)C(=O)O; Pra = C#CC[C@H](N)C(=O)O

What was measured:
[1] = target: T1, human β2AR (Homo sapiens, UniProt P07550, N187E); test: Radioligand binding assay (RLA) with human β2AR, 3H-dihydroalprenolol (DHA) as radioligand, isoproterenol (agonist) as cold competitor, in presence and absence of the peptidomimetic; design: key to Shift: ratio IC50 basal (no peptide) / IC50 with peptidomimetic
T1 construct: made in house; host or cells: Sf9 insect cells (Bac-to-Bac baculovirus); membrane extracts
Experimental: β2AR365N constructs were expressed in Sf9 insect cells, using the Bac-to-Bac® Baculovirus Expression System. The membrane extracts were prepared from cells that expressed β2AR. Subsequently, the cell pellet was resuspended in a buffer (1 ml buffer/2×1E7 cells) containing 75 mM Tris pH 7.4, 12.5 mM MgCl2, 1 mM EDTA, Leupeptin and PMSF as protease inhibitors. Afterwards the cells were vortexed and homogenized in ice using a small volume Ultraturrax (6×10 sec). The cells were then centrifuged for 15 min at 16000 rcf, in a pre-cooled centrifuge (4° C.) and resuspended in the previous buffer containing 10% sucrose. Finally, the membranes were again homogenized in ice with the small volume Ultraturrax (3×10 sec). The protein concentration in the membrane fragments was determined using a Pierce BCA Protein Assay Kit and the protein concentration was extrapolated from the Bovine Serum Albumine standard curve.
To perform the radioligand competition binding assays, 96-well plates were used. For the assays on β2AR, the membrane extracts as well as the peptides were prepared in a binding buffer (75 mM Tris pH 7.4, 12.5 mM MgCl2, 1 mM EDTA, 0.2% BSA). The ligand (isoproterenol) and radioligand ([^3H]-dihydroalprenolol) were dissolved in ligand buffer (75 mM Tris pH 7.4, 12.5 mM MgCl2, 1 mM EDTA, 0.2% BSA and 0.1% ascorbic acid), at 1 mM and 2 nM, respectively. A ten-fold dilution series of the ligand was prepared to obtain a dose response curve. For each reaction 100 μl membrane extract, 50 μl ligand, 50 μl peptide or binding buffer containing 1% DMSO and 50 μl of radioligand was added to the V-bottom storage plate, with a total volume of 250 μl per well. Afterwards, the plates were incubated at room temperature for 2 h on a plate shaker (150 rpm). The samples were harvested into filter plates and washed with ice cold washing buffer (75 mM Tris pH 7,4) using the 96-well harvester. The plates were dried for 1 h at 50° C. and then sealed to allow the addition of 30 μl scintillation liquid to each well. Finally, the top of each plate was sealed and the plates were placed in a Wallac MICROBETA® Trilux scintillation counter and incubated for 30 min in the dark.
After the Microbeta scintillation counter, the experimental data was further analyzed using Graphpad Prism 6.0. After normalization of the raw data, a nonlinear regression was used to fit the data in a one-site binding model, with the total binding set as 100% and the non-specific binding between 0 and 5%. The IC50 values, obtained from the competition curves, were used to determine the shift for each peptide, which is the ratio of IC50 of the agonist test compound on the basal conformation (e.g. IC50 β2AR with no peptidomimetic) versus the active conformation (e.g. IC50 β2AR+peptidomimetic) of the receptor. For certain peptide analogues, a biphasic binding curve was observed and therefore fitted by a two-site model (nonlinear regression), resulting in two IC50 values (IC50Hi and IC50Lo) and a FractionHi, the fraction of receptors in the active state.
Synthesised peptidomimetics were evaluated using a radioligand binding assay (RLA) with a human β2AR, using ^3H-dihydroalprenolol (DHA) as the radioligand and increasing concentrations of isoproterenol (agonist) as cold competitor. In particular, the pharmacological stabilization of the receptor in the active conformation was evaluated by performing the radioligand displacement assay (RLA) in the presence and absence of the peptidomimetics. This validated assay quantifies the pharmacological stabilization of the receptor in the active conformation by comparing the affinities of an agonist for the basal versus the active GPCR conformer (Pardon et al. (2018) Angewandte Chemie International Edition 57, 5292-5295). During the assay, the binding affinity of an orthosteric agonist for the receptor, in particular isoproterenol for human β2AR, in presence and absence of the allosteric peptidomimetic was determined. […]

[2] = target: T2, human β2AR (human, UniProt P07550 2-365); test: cell-based or functional assay
[3] = target: T2, human β2AR; test: cell-based or functional assay; remark: listed apart in the source
[4] = target: T2, human β2AR; test: cell-based or functional assay; remark: listed apart in the source
[5] = target: T2, human β2AR; test: cell-based or functional assay; remark: listed apart in the source
[6] = Table 1, ratio IC50 β2AR alone / IC50 β2AR + peptidomimetic
[7] = Table 18b overview, averaged values of IC50 shift
[8] = Table 18a overview, averaged values of IC50 shift
[9] = Table 6, ratio IC50 β2AR alone / IC50 β2AR + peptidomimetic

Molecule: Ac-FN[PraCRDAzk]IQRMHLRQYELL-OH (Ac-FN[Pra′]CRD[Azk]IQRMHLRQYELL-OH; triazole 3-7) [compound 12]
- Shift ([1]; Table 8, ratio IC50 β2AR alone / IC50 β2AR + modulator): 37

Molecule: QRMHLRQYELL [compound 21, Ac-QRMHLRQYELL-OH]
- Shift [1, 6]: 1
- Shift [1, 7]: 1

Molecule: CCC(C)[C@@H]1NC(=O)[C@@H](NC(=O)[C@H](CC(=O)O)NC(=O)[C@H](CCCNC(=N)N)NC(=O)[C@H](CS)NC(=O)[C@H](CC(=O)O)NC(=O)[C@H](CC(N)=O)NC(=O)[C@H](Cc2ccccc2)NC(C)=O)Cc2cn(nn2)CCCC[C@@H](C(=O)N[C@@H](Cc2c[nH]cn2)C(=O)N[C@@H](CC(C)C)C(=O)N[C@@H](CCCNC(=N)N)C(=O)N[C@@H](CCC(N)=O)C(=O)N[C@@H](Cc2ccc(O)cc2)C(=O)N[C@@H](CCC(=O)O)C(=O)N[C@@H](CC(C)C)C(=O)N[C@@H](CC(C)C)C(=O)O)NC(=O)[C@H](CCCNC(=N)N)NC(=O)[C@H](CCC(N)=O)NC1=O (some centres unmarked) [compound 11, Ac-FNDCRD[PraIQRAzk]HLRQYELL-OH] (Ac-FNDCRD[Pra][Ile(3ξ)]QR[Lys(N3)]HLRQYELL-OH; triazole 7-11)
- Shift ([1]; Table 5, ratio IC50 β2AR alone / IC50 β2AR + peptidomimetic): 7
- Shift [1, 8]: 7

Molecule: RDIIQRMHLRQYELL [compound 16, Ac-RDIIQRMHLRQYELL-OH]
- Shift [1, 6]: 1
- Shift [1, 7]: 1

Molecule: Ac-FN[ECRDK]IQRMHLRQYELL-OH [compound 24]
- Shift [1, 9]: 7
- Shift [1, 8]: 7

Molecule: Ac-RDIIQR[AzkHLRPra]YELL-OH (Ac-RDIIQR[Azk]HLR[Pra′]YELL-OH; triazole 7-11) [compound 19]
- Shift [1, 7]: 5

Molecule: Ac-FN[S5CRDS5]IQRMHLRQYELL-OH [compound 26]
- Shift [1, 9]: 2
- Shift [1, 8]: 2

Molecule: Ac-KKKFN[PraCRDAzk]IQRMHLRQ1-NaIELL-OH (Ac-KKKFN[Pra′]CRD[Azk]IQRMHLRQ[1Nal]ELL-OH; triazole 6-10) [compound 57]
- Shift ([1]; Table 18c overview, averaged values of IC50 shift): 49

B1: compound 22 (peptide)
peptide: Ac-FN[Pra′]CRD[Azk]IQRMHLRQYELL-OH
- Shift (averaged) [2]: 9

B2: compound 62 (peptide)
peptide: Ac-KKKFN[Pra″]CRD[Lys(N3)]IQRMHLRQYEFL-OH
modifications: triazole 6-10
- Fraction HI (%) [3]: 91%
- IC50 (nM) of isoproterenol, [3H]-DHA RLA, peptidomimetic present [3]: 17.1 nM
- Shift [3]: 93
- Shift (averaged) [4]: 87

B3: compound 68 (peptide)
peptide: Ac-FNDCRDIIQRMHLRQYEFL-OH
- Fraction HI (%) [3]: 62%
- IC50 (nM) of isoproterenol, [3H]-DHA RLA, peptidomimetic present [3]: 54.6 nM
- Shift [3]: 29
- Shift (averaged) [4]: 35

B4: compound 69 (peptide)
peptide: Ac-FNDCRDIIQRMHLRQYEWL-OH
- Fraction HI (%) [3]: 51%
- IC50 (nM) of isoproterenol, [3H]-DHA RLA, peptidomimetic present [3]: 28.9 nM
- Shift [3]: 55
- Shift (averaged) [4]: 27

B5: compound 76 (peptide)
peptide: Ac-FNDCRDIIQRMHLRQYEAL-OH
- IC50 (nM) of isoproterenol, [3H]-DHA RLA, peptidomimetic present [5]: 1070 nM
- Shift [5]: 1
- Shift (averaged) [4]: 1

B6: compound 77 (peptide)
peptide: Ac-FNDCRDIIQRMHLRQYALL-OH
- IC50 (nM) of isoproterenol, [3H]-DHA RLA, peptidomimetic present [5]: 175 nM
- Shift [5]: 5
- Shift (averaged) [4]: 5

B7: compound 78 (peptide)
peptide: Ac-FNDCRDIIQRMHLRQAELL-OH
- IC50 (nM) of isoproterenol, [3H]-DHA RLA, peptidomimetic present [5]: 616 nM
- Shift [5]: 1
- Shift (averaged) [4]: 1

B8: compound 79 (peptide)
peptide: Ac-FNDCRDIIQRMHLRQYELA-OH
- IC50 (nM) of isoproterenol, [3H]-DHA RLA, peptidomimetic present [5]: 849 nM
- Shift [5]: 1
- Shift (averaged) [4]: 1
